# Changes are numbered by the printed parent chain. Names and notes keep the numbering of the source.
# B1: CODA407: engineered chimeric LGIC receptor, Y210F in SEQ ID NO: 33 (protein)
# chain: MRCSPGGVWLALAASLLHVSLQGEFQRKLYKELVKNYNPLERPVANDSQPLTVYFSLSLLQIMDVDEKNQVLTTNIWLQMSWTDHYLQWNVSEYPGVKTVRFPDGQIWKPDILLYNSADERFDATFHTNVLVNSSGHCQYLPPGIFKSSCPMDLKNFPMDVQTCKLKFGSWSYGGWSLDLQMQEADISGYIPNGEWDLVGIPGKRSERFFECCKEPYPDVTFTVTMRRRMGYYLIQMYIPSLLIVILSWISFWINMDAAPARVGLGITTVLTMTTQSSGSRASLPKVSYVKAIDIWMAVCLLFVFSALLEYAAVNFVSRQHKELLRFRRKRRHHKSPMLNLFQEDEAGEGRFNFSAYGMGPACLQAKDGISVKGANNSNTTNPPPAPSKSPEEMRKLFIQRAKKIDKISRIGFPMAFLIFNMFYWIIYKIVRREDVHNQ
# modifications: synthetic sequence of chimeric LGIC
# B2: CODA409: engineered chimeric LGIC receptor, Y210W in SEQ ID NO: 33 (protein)
# chain: B1 chain with F210W
# modifications: synthetic sequence of chimeric LGIC
# Tested on: Lenti-X 293T cells
# Assay: YFP fluorescence quenching anion reporter plate reader assay of engineered receptors stimulated with acetylcholine or a non-native ligand
# Format: cell-based
# Details: for percent quench of YFP fluorescence, 10 uM ach: acetylcholine 10 uM; for percent quench of YFP fluorescence, 100 uM ach: acetylcholine 100 uM; for percent quench of YFP fluorescence, 1 mM ach: acetylcholine 1 mM; for percent quench of YFP fluorescence, 3 mM ach: acetylcholine 3 mM
# Outline: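 YFP quench was followed for about 1 min 43 s after ligand delivered in iodide-based ECS, pH 7.2. Values are end-of-read fluorescence (last 10 s) divided by the pre-ligand baseline (15 s). Cells were LX293T, transfected with receptor DNA a day before the assay.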
molecule,measurement,setting,value
B1,YFP fluorescence quenching using CNL001,"1 nM CNL001, first column",−10.845%
same,YFP fluorescence quenching using CNL001,"1 nM CNL001, second column",−2.629%
same,YFP fluorescence quenching using TC-5619/Bradanicline,3 nM brd,−0.53%
same,YFP fluorescence quenching using Varenicline,"3 nM var, first column",2.441
same,YFP fluorescence quenching using Varenicline,"3 nM var, second column",7.326
same,YFP fluorescence quenching using CNL001,"10 nM CNL001, first column",4.66%
same,YFP fluorescence quenching using CNL001,"10 nM CNL001, second column",12.246%
same,YFP fluorescence quenching using TC-5619/Bradanicline,30 nM brd,8.71%
same,YFP fluorescence quenching using Facinicline,30 nM fac,−21.94
same,YFP fluorescence quenching using Varenicline,"30 nM var, first column",1.275
same,YFP fluorescence quenching using Varenicline,"30 nM var, second column",12.96
same,YFP fluorescence quenching using CNL001,"50 nM CNL001, first column",29.307%
same,YFP fluorescence quenching using CNL001,"50 nM CNL001, second column",41.78%
same,YFP fluorescence quenching using ABT-126,50 nM abt,−13.07%
same,YFP fluorescence quenching using CNL001,"100 nM CNL001, first column",50.654%
same,YFP fluorescence quenching using CNL001,"100 nM CNL001, second column",62.054%
same,YFP fluorescence quenching using CNL002,100 nM CNL002,−12.47%
same,YFP fluorescence quenching using ABT-126,100 nM abt,0.1%
same,YFP fluorescence quenching using AZD-0328,100 nM azd0328,0.85%
same,YFP fluorescence quenching using ABT-126,300 nM abt,5.97%
same,YFP fluorescence quenching using AZD-0328,300 nM azd0328,1.25%
same,YFP fluorescence quenching using TC-5619/Bradanicline,300 nM brd,76.26%
same,YFP fluorescence quenching using Facinicline,300 nM fac,−22.46
same,YFP fluorescence quenching using Varenicline,"300 nM var, first column",13.119
same,YFP fluorescence quenching using Varenicline,"300 nM var, second column",2.355
same,YFP fluorescence quenching using Varenicline,"500 nM var, first column",11.539
same,YFP fluorescence quenching using Varenicline,"500 nM var, second column",6.571
same,YFP fluorescence quenching using CNL001,"1 uM CNL001, first column",81.742%
same,YFP fluorescence quenching using CNL001,"1 uM CNL001, second column",81.304%
same,YFP fluorescence quenching using CNL002,1 uM CNL002,−3.93%
same,YFP fluorescence quenching using ABT-126,1 uM abt,50.23%
same,YFP fluorescence quenching using TC-6987,1 uM tc6987,−15.22
same,YFP fluorescence quenching using Varenicline,"1 uM var, first column",8.397
same,YFP fluorescence quenching using Varenicline,"1 uM var, second column",7.309
same,YFP fluorescence quenching using TC-6987,10 uM tc6987,−19.89
same,YFP fluorescence quenching using CNL002,30 uM CNL002,80.97%
same,YFP fluorescence quenching using AZD-0328,30 uM azd0328,82.08%
same,YFP fluorescence quenching using Facinicline,30 uM fac,82.63
same,YFP fluorescence quenching using TC-6987,500 uM tc6987,−33.32
same,"percent quench of YFP fluorescence, 10 uM ach",,−3.75%
same,"percent quench of YFP fluorescence, 100 uM ach",,−1.6%
same,"percent quench of YFP fluorescence, 1 mM ach",,71.65%
same,"percent quench of YFP fluorescence, 3 mM ach",,79.09%
B2,YFP fluorescence quenching using CNL001,"1 nM CNL001, first column",−8.914%
same,YFP fluorescence quenching using CNL001,"1 nM CNL001, second column",−14.319%
same,YFP fluorescence quenching using TC-5619/Bradanicline,1 nM brd,−13.45%
same,YFP fluorescence quenching using TC-5619/Bradanicline,3 nM brd,−0.64%
same,YFP fluorescence quenching using Varenicline,"3 nM var, first column",7.776
same,YFP fluorescence quenching using Varenicline,"3 nM var, second column",−2.964
same,YFP fluorescence quenching using CNL001,"10 nM CNL001, first column",−1.444%
same,YFP fluorescence quenching using CNL001,"10 nM CNL001, second column",4.393%
same,YFP fluorescence quenching using TC-5619/Bradanicline,10 nM brd,37.3%
same,YFP fluorescence quenching using TC-5619/Bradanicline,30 nM brd,76.36%
same,YFP fluorescence quenching using Facinicline,30 nM fac,−10.93
same,YFP fluorescence quenching using Varenicline,"30 nM var, first column",−5.568
same,YFP fluorescence quenching using Varenicline,"30 nM var, second column",3.024
same,YFP fluorescence quenching using CNL001,"50 nM CNL001, first column",11.897%
same,YFP fluorescence quenching using CNL001,"50 nM CNL001, second column",11.434%
same,YFP fluorescence quenching using ABT-126,50 nM abt,8.23%
same,YFP fluorescence quenching using CNL001,"100 nM CNL001, first column",12.719%
same,YFP fluorescence quenching using CNL001,"100 nM CNL001, second column",16.053%
same,YFP fluorescence quenching using CNL002,100 nM CNL002,−14.92%
same,YFP fluorescence quenching using ABT-126,100 nM abt,55.53%
same,YFP fluorescence quenching using AZD-0328,100 nM azd0328,−6.57%
same,YFP fluorescence quenching using TC-5619/Bradanicline,100 nM brd,72.72%
same,YFP fluorescence quenching using ABT-126,300 nM abt,74.82%
same,YFP fluorescence quenching using AZD-0328,300 nM azd0328,−4.84%
same,YFP fluorescence quenching using TC-5619/Bradanicline,300 nM brd,75.47%
same,YFP fluorescence quenching using Facinicline,300 nM fac,−5.82
same,YFP fluorescence quenching using Varenicline,"300 nM var, first column",2.815
same,YFP fluorescence quenching using Varenicline,"300 nM var, second column",3.06
same,YFP fluorescence quenching using ABT-126,500 nM abt,77.39%
same,YFP fluorescence quenching using Varenicline,"500 nM var, first column",1.766
same,YFP fluorescence quenching using Varenicline,"500 nM var, second column",2.819
same,YFP fluorescence quenching using CNL001,"1 uM CNL001, first column",14.077%
same,YFP fluorescence quenching using CNL001,"1 uM CNL001, second column",15.495%
same,YFP fluorescence quenching using CNL002,1 uM CNL002,−0.85%
same,YFP fluorescence quenching using ABT-126,1 uM abt,77.77%
same,YFP fluorescence quenching using TC-5619/Bradanicline,1 uM brd,78.73%
same,YFP fluorescence quenching using TC-6987,1 uM tc6987,62.82
same,YFP fluorescence quenching using Varenicline,"1 uM var, first column",1.844
same,YFP fluorescence quenching using Varenicline,"1 uM var, second column",−4.059
same,YFP fluorescence quenching using ABT-126,3 uM abt,69.33%
same,YFP fluorescence quenching using ABT-126,10 uM abt,74.79%
same,YFP fluorescence quenching using Facinicline,10 uM fac,60.97
same,YFP fluorescence quenching using TC-6987,10 uM tc6987,78.66
same,YFP fluorescence quenching using CNL002,30 uM CNL002,29.62%
same,YFP fluorescence quenching using ABT-126,30 uM abt,75.61%
same,YFP fluorescence quenching using AZD-0328,30 uM azd0328,81.64%
same,YFP fluorescence quenching using Facinicline,30 uM fac,57.77
same,YFP fluorescence quenching using ABT-126,50 uM abt,75.72%
same,YFP fluorescence quenching using ABT-126,100 uM abt,78.52%
same,YFP fluorescence quenching using TC-6987,500 uM tc6987,70.35
same,"percent quench of YFP fluorescence, 10 uM ach",,−5.43%
same,"percent quench of YFP fluorescence, 100 uM ach",,17.14%
same,"percent quench of YFP fluorescence, 1 mM ach",,78.84%
same,"percent quench of YFP fluorescence, 3 mM ach",,78.55%
